Measurements taken from PMC2112199 (The Journal of Cell Biology, 1982).
Several values for one entry are separate records, joined by “and”; a condition that tells them apart may be missing. Identical values can stand only once. Like-named read-outs stand apart in the source and are kept apart here.

Columns and labels:
Acanthamoeba actin [1] = target: Acanthamoeba actin (Acanthamoeba)
Acanthamoeba actin [2] = target: Acanthamoeba actin (Acanthamoeba); assay: critical concentration of actin polymerization at steady state
[3] = target: Rabbit skeletal muscle actin (rabbit, UniProt P68135 1-377); assay: inhibition of actin polymerization by profilin

B1: Acanthamoeba profilin (natural protein)
chain: SWQTYVDTNLVGTGAVTQAAILGLDGNTWATSAGFAVTPAQGQTLASAFNNADPIRASGFDLAGVHYVTLRADDRSIYGKKGSAGVITVKTSKSILVGVYNEKIQPGTAANVVEKLADYLIGQGF
With B1 the Kd (Acanthamoeba actin [1]) was 4 µM and 3.1 µM and 3.7 µM, the Kd (Acanthamoeba actin [2]) was 0.9 µM and 1.4 µM and 1.3 µM and the Kd [3] was over 30 µM.
